Experimental data reported in patent EP2045266A1, “Methods for treating and diagnosing a cancer secreting cath-D or Alzheimer's disease” (priority 2007, dated 2009).

Biological target: M6P receptors
Experiment: cell-based or functional assay

pro-cath-D (52 kDa precursor of human cathepsin D), P07339 21-412 (enzyme), sequence (P07339 21-412 limits assumed): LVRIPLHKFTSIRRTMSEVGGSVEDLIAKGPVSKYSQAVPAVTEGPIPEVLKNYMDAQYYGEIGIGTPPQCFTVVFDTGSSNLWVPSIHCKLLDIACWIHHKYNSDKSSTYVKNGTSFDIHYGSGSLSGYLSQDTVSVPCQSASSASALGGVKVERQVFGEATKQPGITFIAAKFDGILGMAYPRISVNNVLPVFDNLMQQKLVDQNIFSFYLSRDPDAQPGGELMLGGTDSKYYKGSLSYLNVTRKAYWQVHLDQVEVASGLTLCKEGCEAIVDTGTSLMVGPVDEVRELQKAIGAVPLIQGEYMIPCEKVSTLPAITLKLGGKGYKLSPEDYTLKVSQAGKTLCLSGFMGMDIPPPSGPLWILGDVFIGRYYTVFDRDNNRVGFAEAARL

pro-cath-D (52 kDa precursor of human cathepsin D), P07339 21-412 (enzyme)
decrease in internalization of labelled pro-cath-D by HMF fibroblasts over 3 h with excess soluble M6P (10 mM): 82%
